This note sets out measurements from the nanobody polyreactivity screen of Harvey et al. (2022).

A short description of this data set: yeast display, Sf9 membrane polyspecificity reagent, FACS + sequencing; frameworks hold sequencing errors. The gist of the method: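 Genes from sorted yeast were amplified by colony PCR, read by MiSeq 2 × 250 sequencing and filtered on CDR length. These cells carried a synthetic nanobody library in Saccharomyces cerevisiae BJ5465 and were sorted by FACS into low and high (top ~1%) gates on anti-HA and streptavidin fluorescence. Polyreactivity is labelled according to the gate of origin.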
With “QVQLVESGGGLVQAGGSLRLSCAASGITFQYYAMGWYRQAPGKERELVAAITSSGVSTYYADSVKGRFTISRDNAKNTVYLQMNSLKPEDTAVYYCNTVVRGWSTSAYDYWGQGTQVTVSS”, the “polyreactivity (PSR sort gate)” value was “low polyreactivity”.
“QVQLVESGGGLVQAGGSLRLSCAASGITFRDYAMGWYRQAPGKERELVAAISRSVGSTYYADSVKGRFTISRDNAKNTVYLQMNSLKPEDTAVYYCAALSQREFDYWGQGTQVTVSS”: the “polyreactivity (PSR sort gate)” value was “high polyreactivity”.
In the case of “QVQLVESGGGLVQAGGSLRLSCAASGITFRGNVMGWYRQAPGKERELVAAISGSSGRTYYADSVKGRFTISRDNAKNTVYLQMYSLKPEDTAVYYCAATRTVRSYSIAPALGYWGQGTQVTVSS” it was “high polyreactivity”.
The entry for “QVQLVESGGGLVQAGGSLRLSCAASGITFRGYAMGWYRQAPGKERELVAAINSGGSTNYADAVKGRFTISRDNAKNTVYLQMNSLKPDDPAVYYCAADDYPYGNYYWGQGTQVTVSS” is “high polyreactivity”; for “QVQLVESGGGLVQAGGSLRLSCAASGITFRGYAMGWYRQAPGKERELVADITWNGGSTYYADSVKGRFTISRDNAKNTVYLQMNSLKPEDPAVYYCAADGYRIYWSSYRFYYWGQGTQVTVSS” it is “high polyreactivity”.
The entry for “QVQLVESGGGLVQAGGSLRLSCAASGITFRGYAMGWYRQAPGKERELVASITNTDSTYYADSVKGRFTISRDNAKNTVYLQMNSLKPEDTAVYYCAARRGRKYGYWGQGTQVTVSS” is “high polyreactivity”.
Regarding “QVQLVESGGGLVQAGGSLRLSCAASGITFRHYAMGWYRQAPGKEREMVARIRGGGVSTYYADSVKGRFTISRDNAKNTVYLQMNSLKPEDTAVYYCNAVFESWWGDYDYWGQGTQVTVSS”, the “polyreactivity (PSR sort gate)” value is reported as “high polyreactivity”.
Take “QVQLVESGGGLVQAGGSLRLSCAASGITFRKYFMGWYRQAPGKERELVATITRNGGTTNYADSVKGRFTISRDNAKNTVYLQMNSLKPEDTAVYYCAAPGPGYIYLGFDYWGQGTQVTVSS”: the “polyreactivity (PSR sort gate)” value was “high polyreactivity”.
In the case of “QVQLVESGGGLVQAGGSLRLSCAASGITFRLYAMGWNRQAPGKERELVAAITGSGGRTYYADSVKGRFTISRDNAKNTVYLHMNSLKPEDTAVYYCAADWRHLRYRGGLKYDYWGQGTQVTFSS” it was “high polyreactivity”.
As to “QVQLVESGGGLVQAGGSLRLSCAASGITFRLYAMGWYRQAPGKERELVAAISKRGGSTYYADSVKGRFTISRDNAKNTVYLPMNSLKPDDTAVYYCAADSGWEHRYDYWGQGTQVTVSS”, the “polyreactivity (PSR sort gate)” value is on record as “high polyreactivity”.
Regarding “QVQLVESGGGLVQAGGSLRLSCAASGITFRRYTMGWYRQAPGKEWELVATISLSDGNTYYADSVKGRFTISRDNAKTTVYLQMNSLKPEDTAGYYCNARHTWHQTYDYWGQGTQVTVSS”, the “polyreactivity (PSR sort gate)” value was “low polyreactivity”.
In the case of “QVQLVESGGGLVQAGGSLRLSCAASGITFRSYAMGWYRQAPGKDRELVAAISRTGGRTYYADSVKGRFTISRDNAKNTVYLQMNSLKAEDSAVYYCAAGGYSPYSLVGYDYWGQGTQVTVSS” it was “high polyreactivity”.
The entry for “QVQLVESGGGLVQAGGSLRLSCAASGITFRYYAMGWYRQAPGKERELVATISSSGARTYYADSVKGRFTISRDNAKNTVYFQINSLKPEDTAVYYCNAVTFTLHSQPYDYWGQGTQVTVSS” is “high polyreactivity”; for “QVQLVESGGGLVQAGGSLRLSCAASGITFRYYAMGWYRQAPGKERELVSVISKGGTSTYYADSVKGRFTISRDNAKITVYLQMNSLKPEDTAVYYCAAAYFSSGYKYYYWGQGNQVTVSS” it is “high polyreactivity”; for “QVQLVESGGGLVQAGGSLRLSCAASGITFRYYPMGWYRPAPGKQRELVAAISRTSGRTYYADSVKGRFTISRDNAKNTVYLQMNSLNPEDPAVYYCNKAWTPSLLYQSYYWGQGPQVTVSS” it is “high polyreactivity”.
With “QVQLVESGGGLVQAGGSLRLSCAASGITFRYYTMGWYRQAPGKERELVAVISWSGGSTYYADSVKGRFTISRDNGKNTVYLQMNSLKPEDTAVYYCAAVRRISRYDYWGQGTQVTVSS”, the “polyreactivity (PSR sort gate)” value was “high polyreactivity”.
On to “QVQLVESGGGLVQAGGSLRLSCAASGITFRYYVMGWYRQAPGKERELVASISWGGGSTYYADSVKGRFTISRDNAKNTVYLQMNSLKPEDTAVYYCAARVPRPSYRGMNYWGQGTQVTVSS”, for which the “polyreactivity (PSR sort gate)” value was “high polyreactivity”.
In the case of “QVQLVESGGGLVQAGGSLRLSCAASGITFSFYAMGWYRQAPAKERELVATIDSGGSTNYADSVKWRFTISRDNAKNTVYLQMNSLKPEYTAVYYCAADGVWYYYDMDYWGQGTQVTVSS” it was “low polyreactivity”.
On to “QVQLVESGGGLVQAGGSLRLSCAASGITFSFYAMGWYRQAPRKERELVAGITRSGGDTYYADSVKGRFTISRDNAKNTVYLQMNSLKPEDTAVYDCADAWFFYRRQYTFFAGRMDYWGQGTQVTVSS”, for which the “polyreactivity (PSR sort gate)” value was “high polyreactivity”.
Take “QVQLVESGGGLVQAGGSLRLSCAASGITFSGNAMGWYIQARGKERELVAGISRRGGSTYYADSVKGSFTISRDNAKNTVYLQINCLKPEATAVYYCADGRDRYRGVAYDYWGQGTQVTVSS”: the “polyreactivity (PSR sort gate)” value is given as “high polyreactivity”.
Turning to “QVQLVESGGGLVQAGGSLRLSCAASGITFSGNAMGWYRQAPGKERELVAAISGRGGSTYYADSVKGRFTISRDNAKNTVYLQMNSLKPVDTAVYYCAADSPENRYNYWGQGTQVTVSS”, the “polyreactivity (PSR sort gate)” value was “high polyreactivity”.
In the case of “QVQLVESGGGLVQAGGSLRLSCAASGITFSGNTMGWYRQAPGKERELVAAISSGGSTYYADSVKGRFTISRDNAKNTVYLQMNSLKPEDTAVYYCAVDYFYQDGRGYNEYWGQGTQVTVSS” it was “low polyreactivity”; in that of “QVQLVESGGGLVQAGGSLRLSCAASGITFSGYVMGWYLQAPGKERELVAAISRSGGSTYYADSVKGRYTISRDNAKNTVYLQMNSLKPEDTAVYYCATASRTSRTGWAGYFWGQGTQVTVSS”, “high polyreactivity”; in that of “QVQLVESGGGLVQAGGSLRLSCAASGITFSHNAMGWSRPAPGKERELVAVIRWSGGRTYYADSVKGRFTISRDNAKNTVYLQMNSLKPEDTAVYYCAARPSTAFPYGKIMDYWGQGTQVTVSS”, “low polyreactivity”.
With “QVQLVESGGGLVQAGGSLRLSCAASGITFSKNAMGWYRKEPGKEKELVAAISRGGSTYYADSEKGRFTISRDNAKNTVYLQMNSLKPEDTAVYYCAARSRYYYRRPQISYDYWGQGTQVTVSS”, the “polyreactivity (PSR sort gate)” value is on record as “low polyreactivity”.
In the case of “QVQLVESGGGLVQAGGSLRLSCAASGITFSKYAMGWYRQAPGKERELVAAISQRGGSKYYADSVKGRFTISRDNAKNTVYLQMNSLKPEDTAVYYCNAEFYWSIIAYEYWGQGTQVTVSS” it was “high polyreactivity”; in that of “QVQLVESGGGLVQAGGSLRLSCAASGITFSRNAMGWYRQAPGKERELVATITSGGSTNYADSVKGRFTISRDNAQNTVYLQMNSLKPEDTAVYYCNAVWNTFISGRSYDYWGQGTQVTVSS”, “low polyreactivity”; in that of “QVQLVESGGGLVQAGGSLRLSCAASGITFSRNTMGWYRQAPGKERELVAAISRSGASTYYADSVKGRFTISRDNAKNTVYLQMNSLKPEDTAVYYCAARFHYPGGPRYYYWGQGTQVTVSS”, “high polyreactivity”.
Take “QVQLVESGGGLVQAGGSLRLSCAASGITFSRYAMGWYRQAPGKERELVAAISWSGTSTYYADSVKGRFTISRDNAKNTVYLQMNSLKPEDTAVYYCAASYGYYRYGYWGQGTQVTVSS”: the “polyreactivity (PSR sort gate)” value is “high polyreactivity”.
For the sequence “QVQLVESGGGLVQAGGSLRLSCAASGITFSRYAMGWYRQAPGKERELVATITFSGTSTFYADSVKGRFTISRDNAKNRFYLQMNSLKPEDTAVYYCARLRFGSWSTYYYWGQGTQVTVSS”, the “polyreactivity (PSR sort gate)” value is “low polyreactivity”.
In the case of “QVQLVESGGGLVQAGGSLRLSCAASGITFSRYAMGWYRQAPGKERELVATITFSGTSTFYADSVKGRFTISRDNAKNTVYLQMNSLKPEDTAVYYCARLRFGSWSTYYYWGQGTQVTVSS” it was “low polyreactivity”; in that of “QVQLVESGGGLVQAGGSLRLSCAASGITFSSNAMGWSRQAPGKERELVAAISSSGGRTYYADSVKVRFTISRDYAKNTVYLQMNSLKPEDTAVYYCAKTSRYYYYSRLYYWGQGTKVTVSS”, “high polyreactivity”; in that of “QVQLVESGGGLVQAGGSLRLSCAASGITFSSYAMGWSRQAPGKERELVAAITSRGGSTYYADSVKGRFTISRDNAKNTVYLQMNSLKPEDTAVYYCNASRVRRWNDYYKKFDYWGQGTQVTVSS”, “high polyreactivity”.
In the case of “QVQLVESGGGLVQAGGSLRLSCAASGITFSSYAMGWYRQAPGKERELVAGITRRGGITYYADSVKGRFTISRDNAKNTVYLQMNSLNPEDTAVYYCAATHRFRSGSPDGGYGYWGQGTQVTVSS”, the “polyreactivity (PSR sort gate)” value is “high polyreactivity”.
In the case of “QVQLVESGGGLVQAGGSLRLSCAASGITFSSYAMGWYRQAPGKERELVAGITRRGRITYYADSVNGRFTISRDNAKNTVYLQMNSLKPEDTAVYYCAATHRFRTGSPDGGFGYWGQGTQVTVSS” it was “high polyreactivity”.
For “QVQLVESGGGLVQAGGSLRLSCAASGITFSVYTMGWYRPAPGKERELVAAIDSDGITNYADSVKGRFTISRDNAKNNVYLQMNSLKPEDTAVYYCAKQSGRADGVSGFDYWGQGTQVTVSS”, the “polyreactivity (PSR sort gate)” value is given as “low polyreactivity”.
Regarding “QVQLVESGGGLVQAGGSLRLSCAASGITFSYNAMGWSRQAPGKERELVAAISSNSDSTYYADSVKGRFTISRDNAKNTVYLQMNSLKPEDTAVYYCAADTPDAPDYSGFYYWGQGSQVTVSS”, the “polyreactivity (PSR sort gate)” value is given as “low polyreactivity”.
In the case of “QVQLVESGGGLVQAGGSLRLSCAASGITFSYNAMGWYRPAPGKERELVAAIRVGDGSTYYADSVKGRFTISRDNAKNTVYLQMNSLNPEDTAVYYCNARYLRLRYPYTDEYNYWGQGTQVTVSS” it was “low polyreactivity”.
The entry for “QVQLVESGGGLVQAGGSLRLSCAASGITFSYNAMGWYRPAPGKERELVAAISSNSDSTYYADSVKGRFTISRDNAKNTVYLQMNSLKPEDTAVYYCAADTPDAPDYSGFYYWGQGTQVTVSS” is “low polyreactivity”.
As to “QVQLVESGGGLVQAGGSLRLSCAASGITFSYNARGWYRQAPGKERELVAAIRVGDGSTYYADSVKGRFTISRDNAKNTVYLQMHSLKPEDTAVYYWNARYLRLRYPYTDEYNYWGQGTQVTVSS”, the “polyreactivity (PSR sort gate)” value is recorded as “low polyreactivity”.
